Biological target: the molecule itself
Test: SEC

B1: wild-type pea cytosolic ascorbate peroxidase (APX) (enzyme)
chain: GKSYPTVSPDYQKAIEKAKRKLRGFIAEKKCAPLILRLAWHSAGTFDSKTKTGGPFGTIKHQAELAHGANNGLDIAVRLLEPIKEQFPIVSYADFYQLAGVVAVEITGGPEVPFHPGREDKPEPPPEGRLPDATKGSDHLRDVFGKAMGLSDQDIVALSGGHTIGAAHKERSGFEGPWTSNPLIFDNSYFTELLTGEKDGLLQLPSDKALLTDSVFRPLVEKYAADEDVFFADYAEAHLKLSELGFAEA
stoichiometry N: 2

Source: PMC3699407 (Nature biotechnology, 2012)
